In paper PMC4005645, “Molecular basis for the wide range of affinity found in Csr/Rsm protein–RNA recognition”:

Experiments:
RsmE [1] = molecular target: T1, RsmE (Pseudomonas fluorescens CHA0, UniProt P0DPC3 1-64); test: NMR structure; slow exchange; ITC: 300 mM NaCl, 50 mM potassium phosphate pH 8.0, 298 K; NMR: 30 mM NaCl, 50 mM potassium phosphate pH 7.2, 313 K; details: protein: recombinant; tags: C-terminal His tag; chain copies: 2; hairpin
T1 sequence: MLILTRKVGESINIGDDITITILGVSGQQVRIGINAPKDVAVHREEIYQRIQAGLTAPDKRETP

RsmE [2] = molecular target: T1, RsmE; test: ITC; intermediate affinity; value in figure; ITC: 300 mM NaCl, 50 mM potassium phosphate pH 8.0, 298 K; NMR: 30 mM NaCl, 50 mM potassium phosphate pH 7.2, 313 K; details: protein: recombinant; tags: C-terminal His tag; chain copies: 2
RsmE [3] = molecular target: T1, RsmE; test: ITC; two-site fit, high affinity, similar to SL2; values in figure; ITC: 300 mM NaCl, 50 mM potassium phosphate pH 8.0, 298 K; NMR: 30 mM NaCl, 50 mM potassium phosphate pH 7.2, 313 K; details: protein: recombinant; tags: C-terminal His tag; chain copies: 2; hairpin
RsmE [4] = molecular target: T1, RsmE; test: ITC; first RNA on dimer, two-site fit; ITC: 300 mM NaCl, 50 mM potassium phosphate pH 8.0, 298 K; NMR: 30 mM NaCl, 50 mM potassium phosphate pH 7.2, 313 K; details: protein: recombinant; tags: C-terminal His tag; chain copies: 2; hairpin
RsmE [5] = molecular target: T1, RsmE; test: ITC; second RNA on dimer, two-site fit; ITC: 300 mM NaCl, 50 mM potassium phosphate pH 8.0, 298 K; NMR: 30 mM NaCl, 50 mM potassium phosphate pH 7.2, 313 K; details: protein: recombinant; tags: C-terminal His tag; chain copies: 2; hairpin

GGGAUCGCAGGAAGCGAUCCC (structured_RNA) [RsmZ SL3]: binds (RsmE [1]).

GGGUCAUCAGGACGAUGACCC (structured_RNA) [RsmZ SL4]: binds (RsmE [1]).

GAGCAUGGACGGCGAGACGCCGGGUA (structured_RNA) [hcnA-GGA#3]: binds (RsmE [2]).

GGGCUUCACGGAUGAAGCCC (structured_RNA) [20nt-RBS (hcnA GGA#5)]: binds (RsmE [3]).

GGGUGUCGACGGAUAGACACCC (structured_RNA) [RsmZ SL1]: binds (RsmE [1]).

Binder GGGCCAUCAAGGACGAUGGUCC (structured_RNA) [RsmZ SL2] has a Kd (RsmE [4]) of 16 ± 3 nM and a Kd (RsmE [5]) of 185 ± 3 nM.
